# Results published in IntAct's records for PubMed 28258151.
# Molecular target: cfah_human CFH (UniProt P08603)
# Sequence (P08603 whole entry): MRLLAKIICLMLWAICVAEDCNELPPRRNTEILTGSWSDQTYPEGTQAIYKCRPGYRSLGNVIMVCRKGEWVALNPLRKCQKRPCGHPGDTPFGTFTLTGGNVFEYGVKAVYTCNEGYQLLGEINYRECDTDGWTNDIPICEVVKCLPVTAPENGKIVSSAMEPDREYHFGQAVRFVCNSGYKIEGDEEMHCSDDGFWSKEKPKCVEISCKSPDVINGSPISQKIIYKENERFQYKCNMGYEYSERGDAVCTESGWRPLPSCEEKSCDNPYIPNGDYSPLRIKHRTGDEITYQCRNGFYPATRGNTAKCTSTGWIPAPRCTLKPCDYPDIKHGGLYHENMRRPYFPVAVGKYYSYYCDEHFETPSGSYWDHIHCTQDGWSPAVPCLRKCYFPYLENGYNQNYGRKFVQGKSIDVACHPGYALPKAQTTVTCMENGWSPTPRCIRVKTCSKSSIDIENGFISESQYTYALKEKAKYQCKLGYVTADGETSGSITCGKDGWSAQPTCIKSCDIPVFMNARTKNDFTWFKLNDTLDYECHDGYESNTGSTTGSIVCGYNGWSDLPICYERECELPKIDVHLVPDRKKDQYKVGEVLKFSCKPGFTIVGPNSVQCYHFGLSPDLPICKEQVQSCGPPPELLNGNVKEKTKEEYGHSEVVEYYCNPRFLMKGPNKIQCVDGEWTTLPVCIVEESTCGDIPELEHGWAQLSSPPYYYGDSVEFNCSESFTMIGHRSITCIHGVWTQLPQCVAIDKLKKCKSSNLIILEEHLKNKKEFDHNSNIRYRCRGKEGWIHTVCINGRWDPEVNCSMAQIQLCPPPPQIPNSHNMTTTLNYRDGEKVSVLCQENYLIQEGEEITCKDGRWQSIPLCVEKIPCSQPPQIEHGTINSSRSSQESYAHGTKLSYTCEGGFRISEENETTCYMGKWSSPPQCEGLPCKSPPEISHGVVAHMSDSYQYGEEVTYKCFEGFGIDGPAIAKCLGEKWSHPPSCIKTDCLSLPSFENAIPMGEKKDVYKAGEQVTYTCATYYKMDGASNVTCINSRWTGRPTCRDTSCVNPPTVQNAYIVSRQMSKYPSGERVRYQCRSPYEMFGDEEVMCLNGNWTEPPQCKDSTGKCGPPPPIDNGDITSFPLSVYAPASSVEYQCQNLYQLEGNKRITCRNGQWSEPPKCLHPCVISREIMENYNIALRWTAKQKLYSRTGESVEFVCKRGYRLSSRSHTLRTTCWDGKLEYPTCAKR
row,Substance,effect of a mutation on the interaction
1,"Serine-aspartate repeat-containing protein E (Staphylococcus aureus (strain Mu50 / ATCC 700699)), Q932F7 Q419A",decreasing interaction
2,"Serine-aspartate repeat-containing protein E (Staphylococcus aureus (strain Mu50 / ATCC 700699)), Q932F7 L335A",decreasing interaction
3,"Serine-aspartate repeat-containing protein E (Staphylococcus aureus (strain Mu50 / ATCC 700699)), Q932F7 D334A",decreasing interaction
4,"Serine-aspartate repeat-containing protein E (Staphylococcus aureus (strain Mu50 / ATCC 700699)), Q932F7 D588A",disrupting interaction
